Reference: paper doi:10.1101/2023.02.07.527516
Each block holds one substance with its values, some of them ahead of it.

What was measured:
Assay in all cases: native gel or EMSA
[1] = target: GluA2(R), edited form of the GluA2 AMPA receptor subunit (rat, flip) (rat)
[2] = target: GluA1 lacking the extracellular domains (GluA1-ΔECD) (rat)
[3] = target: GluA1-TARP γ-2 tandem (rat)
[4] = target: GluA1(G816A) (rat)
[5] = target: GluA1 AMPA receptor subunit, wild type (rat, flip) (rat)
[6] = target: GluA1(G816A)-TARP γ-2 tandem (rat)

Sequence of GluA2(R), edited form of the GluA2 AMPA receptor subunit (rat, flip) (P19491 22-883): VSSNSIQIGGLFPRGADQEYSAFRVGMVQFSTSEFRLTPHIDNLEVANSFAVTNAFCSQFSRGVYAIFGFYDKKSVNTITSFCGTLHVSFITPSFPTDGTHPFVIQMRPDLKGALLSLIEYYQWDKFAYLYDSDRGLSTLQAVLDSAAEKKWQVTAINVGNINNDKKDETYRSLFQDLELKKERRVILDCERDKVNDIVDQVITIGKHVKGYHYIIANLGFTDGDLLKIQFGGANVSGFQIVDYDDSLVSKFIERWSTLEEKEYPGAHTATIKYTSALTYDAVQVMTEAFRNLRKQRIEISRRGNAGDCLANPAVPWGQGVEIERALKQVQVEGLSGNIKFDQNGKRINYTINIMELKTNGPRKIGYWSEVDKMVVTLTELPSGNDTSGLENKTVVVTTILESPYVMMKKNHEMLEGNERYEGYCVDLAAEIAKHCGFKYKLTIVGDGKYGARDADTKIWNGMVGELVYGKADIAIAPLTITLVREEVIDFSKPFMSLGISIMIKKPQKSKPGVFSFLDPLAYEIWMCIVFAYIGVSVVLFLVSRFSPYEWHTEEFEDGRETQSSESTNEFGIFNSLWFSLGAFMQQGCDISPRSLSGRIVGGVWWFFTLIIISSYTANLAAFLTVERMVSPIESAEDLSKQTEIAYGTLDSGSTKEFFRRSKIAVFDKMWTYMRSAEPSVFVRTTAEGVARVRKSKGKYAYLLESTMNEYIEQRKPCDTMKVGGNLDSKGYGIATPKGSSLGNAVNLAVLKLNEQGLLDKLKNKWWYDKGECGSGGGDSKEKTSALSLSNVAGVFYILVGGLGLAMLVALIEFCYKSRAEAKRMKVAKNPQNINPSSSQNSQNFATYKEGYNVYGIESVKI

stoichiometry N [1]: 4
Substance: GluA2(R), edited form of the GluA2 AMPA receptor subunit (rat, flip)

stoichiometry N [2]: 4
Substance: GluA1 lacking the extracellular domains (GluA1-ΔECD) (domain or fragment)

stoichiometry N [3]: 4
Substance: GluA1-TARP γ-2 tandem

tetramer formation [4]: 50%
Substance: GluA1(G816A) (receptor)

stoichiometry N [5]: 4
Substance: GluA1 AMPA receptor subunit, wild type (rat, flip)

stoichiometry N [6]: 4
Substance: GluA1(G816A)-TARP γ-2 tandem
